Measured values as given in article doi:10.1101/464495.

Key:
[1] = molecular target: Maltose binding protein (MBP) (UniProt P0AEX9 27-396); assay: size-exclusion chromatography
MBP-IE86 full length = molecular target: T1, MBP-IE86 full length (human cytomegalovirus, UniProt P19893 1-580); assay: size-exclusion chromatography
T1 sequence: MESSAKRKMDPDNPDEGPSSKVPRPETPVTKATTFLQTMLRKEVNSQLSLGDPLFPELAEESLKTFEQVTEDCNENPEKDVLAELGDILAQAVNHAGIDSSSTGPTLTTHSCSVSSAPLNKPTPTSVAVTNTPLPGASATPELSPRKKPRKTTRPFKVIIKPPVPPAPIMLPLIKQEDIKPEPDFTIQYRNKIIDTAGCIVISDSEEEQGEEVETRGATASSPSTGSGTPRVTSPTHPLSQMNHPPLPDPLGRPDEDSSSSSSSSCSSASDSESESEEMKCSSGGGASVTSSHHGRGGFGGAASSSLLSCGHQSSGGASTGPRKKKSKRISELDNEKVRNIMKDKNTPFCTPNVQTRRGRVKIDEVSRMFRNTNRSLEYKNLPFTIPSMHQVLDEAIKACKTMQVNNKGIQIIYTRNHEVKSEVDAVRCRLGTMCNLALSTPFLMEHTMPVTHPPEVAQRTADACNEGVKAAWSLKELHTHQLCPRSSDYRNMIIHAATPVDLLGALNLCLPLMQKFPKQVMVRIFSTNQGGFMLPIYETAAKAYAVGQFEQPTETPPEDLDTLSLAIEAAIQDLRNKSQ

B1: FDC (28bp, phosphorothioate) (dsDNA)
DNA 1: GACAGATCGTTTAGTGAACCGTACACGA
DNA 2: TCGTGTACGGTTCACTAAACGATCTGTC
modifications: four phosphorothioate bonds per strand (* in table)
- binding result [1]: no binding
- binding result (MBP-IE86 full length): binds
